We go through 2 molecules from patent publication US11572408B2, “Treatment of cancer with a semaphorin-4D antibody in combination with an epigenetic modulating agent” (Vaccinex, Inc., priority 2017, dated 2023).

Assay type in all cases: in vivo, Balb/c mice
Experiment [1] deals with Colon26 cells. Put plainly: Example 1: Colon26 subcutaneous tumor mouse model, ENT and anti-SEMA4D MAb. Particulars: MAb 67 10 mg/kg ip weekly x5 from day 2, ENT 20 mg/kg 3x/week x2 weeks from tumor volume ~300 mm^3, FIG. 2A. The procedure: Colon26 cells (500,000 cells) were implanted subcutaneously into Balb/c mice. […] Kaplan-Meier survival analysis was performed to assess survival function, change in tumor volume was measured to determine tumor growth rates, and frequency of complete tumor regression was evaluated by determining the percentage of tumor-free mice. Percent complete regression (% CR) was also stratified by tumors that exceeded at least 100 mm^3 before regressing. Statistical significance was determined using Mantel Cox Log Rank test for survival, 2-way ANOVA for tumor volume, and Fisher's exact test for CR. Prism reports results as non-significant (ns) at P>0.05, significant (symbolized by “*”) at 0.01<P≤0.05, very significant (“**”) at 0.001<P≤0.01, extremely significant (“***”) at P≤0.001, and highest significance (“****”) at P≤0.0001.

For experiment [2], the system named is Colon26 cells. Put plainly: Example 2: Colon26 subcutaneous tumor mouse model, ENT and anti-SEMA4D MAb. As for the experimental part:
Colon26 cells (500,000 cells) were implanted subcutaneously into Balb/c mice. […] Statistical significance was determined using 2-way ANOVA, Mantel Cox Log Rank test, and Fisher's exact test, respectively. Prism reports results as non-significant (ns) at P>0.05, significant (symbolized by “*”) at 0.01<P≤0.05, very significant (“**”) at 0.001<P≤0.01, and extremely significant (“***”) at P≤0.001.

Experiment [3] has as its system Colon26 cells. Put plainly: Example 3: Colon26 subcutaneous tumor mouse model, AZA and anti-SEMA4D MAb. The following applies: MAb 67 10 mg/kg ip weekly x4 from day 2, AZA 0.8 mg/kg 3x/week x4 doses from tumor volume ~200 mm^3, FIG. 5A. The procedure: Colon26 cells (500,000 cells) were implanted subcutaneously into Balb/c mice.
Kaplan-Meier survival analysis was performed to assess survival function, change in tumor volume was measured to determine tumor growth rates, and frequency of complete tumor regression was evaluated by determining the percentage of tumor-free mice.

Take `Nc1ccccc1NC(=O)c1ccc(CNC(=O)OCc2cccnc2)cc1` [ENT, pyridin-3-ylmethyl N-[[4-[(2-aminophenyl)carbamoyl]phenyl]methyl] carbamate, reference compound]: the “maximal tumor growth delay (TGD)” value in experiment [1] is listed as 214%. The “frequency of complete tumor regression” value in experiment [2] (Fisher's exact test) is 25%.

B1: anti-SEMA4D/MAb 67: anti-SEMA4D monoclonal antibody, VH SEQ ID NO: 9 and VL SEQ ID NO: 10 (antibody, V domains shown)
VH: QVQLQQSGPELVKPGASVKISCKASGYSFSDYYMHWVKQSPENSLEWIGQINPTTGGASYNQKFKGKATLTVDKSSSTAYMQLKSLTSEESAVYYCTRYYYGRHFDVWGQGTTVTVSS
VL: DIVMTQSPASLAVSLGQRATISCKASQSVDYDGDSYMNWYQQKPGQPPKLLIYAASNLESGIPARFSGSGSGTDFTLNIHPVEEEDAATYYCQQSNEDPYTFGGGTKLEIK
modifications: Mab 67 VH; Mab 67 VL
Take B1: the “maximal tumor growth delay (TGD)” value in experiment [1] is reported as 107%; in experiment [3], 119%; in experiment [2] (MAb 67 10 mg/kg weekly x5 from day 2, ENT 20 mg/kg 3x/week x2 weeks from tumor volume ~250 mm^3, FIG. 3A), 119%.
